Test results from patent US20210070881A1 (DENALI THERAPEUTICS, published 2021).
Where two headings read alike, the source gives them in different places. Blank lines part the entries; values can stand above or below the binder they belong to.

Columns and labels:
[1] = target: T1, human TfR (human, UniProt P02786 89-760, limits assumed); assay: ELISA, TfR coated, Fab-Fc fusion
T1 construct: Protein coated on ELISA plates; also called human transferrin receptor protein 1
Experimental: Binding ELISAs were conducted with purified Fab-Fc fusion variants with human or cyno TfR coated on the plate, as described above. The variants from the clone CH3C.18 maturation library, clone CH3C.3.2-1, clone CH3C.3.2-5, and clone CH3C.3.2-19, bound human and cyno TfR with approximately equivalent EC₅₀ values, whereas the parent clones CH3C.18 and CH3C.35 had greater than 10-fold better binding to human versus cyno TfR.

[2] = target: cellular BACE1 in CHOK1-huAPP cells; assay: cell-based or functional assay
[3] = target: BACE1 in primary human neurons (human, UniProt P56817 46-501); assay: cell-based or functional assay
[4] = target: cellular BACE1 in CHOK1-huAPP cells; assay: cell-based or functional assay; remark: listed apart in the source
[5] = target: cellular BACE1 in CHOK1-huAPP cells; assay: cell-based or functional assay; remark: listed apart in the source
[6] = target: T2, recombinant BACE1 (BACE1 extracellular domain, R&D Systems Cat#931-AS) (UniProt P56817 22-457); assay: SPR Biacore
T2 construct: extracellular domain; also called BACE1 extracellular domain protein

[7] = target: cellular BACE1 in CHOK1-huAPP cells; assay: cell-based or functional assay; remark: listed apart in the source
[8] = target: T2, recombinant BACE1 (BACE1 extracellular …); assay: SPR Biacore T200, IgG captured, BACE1 analyte
Experimental: The affinity of chimeric IgG antibodies for recombinant BACE1 was determined by surface plasmon resonance using a Biacore™ T200 instrument. Biacore™ Series S CMS sensor chips were immobilized with monoclonal mouse anti-human IgG (Fc) antibody (e.g., using a human antibody capture kit from GE Healthcare). 1 μg/mL of antibody was captured for 1 minute on each flow cell and serial 3-fold dilutions of recombinant BACE1 were injected at a flow rate of 30 μL/min. Each sample was analyzed with a 3-minute association and a 10-minute dissociation. After each injection, the chip was regenerated using 3M MgCl₂. Binding response was corrected by subtracting the RU from a flow cell capturing an irrelevant IgG at similar density. A 1:1 Langmuir model of simultaneous fitting of kₒₙ and koff was used for analysis of kinetics.

[9] = target: T2, recombinant BACE1 (BACE1 extracellular …); assay: SPR Biacore; remark: listed apart in the source

T2 sequence (P56817 22-457): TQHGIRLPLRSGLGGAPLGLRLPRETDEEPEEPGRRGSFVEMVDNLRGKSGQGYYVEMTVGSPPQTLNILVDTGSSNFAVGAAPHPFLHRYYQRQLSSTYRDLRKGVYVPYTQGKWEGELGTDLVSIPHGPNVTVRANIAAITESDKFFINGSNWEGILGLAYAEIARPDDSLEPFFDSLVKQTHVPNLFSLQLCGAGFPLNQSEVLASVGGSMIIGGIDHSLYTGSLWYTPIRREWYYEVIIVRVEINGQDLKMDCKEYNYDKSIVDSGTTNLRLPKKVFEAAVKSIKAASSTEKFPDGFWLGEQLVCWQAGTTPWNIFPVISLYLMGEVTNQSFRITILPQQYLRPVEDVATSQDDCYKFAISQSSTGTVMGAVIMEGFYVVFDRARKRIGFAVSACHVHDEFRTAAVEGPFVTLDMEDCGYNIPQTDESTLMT
Chain of BACE1 in primary human neurons (P56817 46-501): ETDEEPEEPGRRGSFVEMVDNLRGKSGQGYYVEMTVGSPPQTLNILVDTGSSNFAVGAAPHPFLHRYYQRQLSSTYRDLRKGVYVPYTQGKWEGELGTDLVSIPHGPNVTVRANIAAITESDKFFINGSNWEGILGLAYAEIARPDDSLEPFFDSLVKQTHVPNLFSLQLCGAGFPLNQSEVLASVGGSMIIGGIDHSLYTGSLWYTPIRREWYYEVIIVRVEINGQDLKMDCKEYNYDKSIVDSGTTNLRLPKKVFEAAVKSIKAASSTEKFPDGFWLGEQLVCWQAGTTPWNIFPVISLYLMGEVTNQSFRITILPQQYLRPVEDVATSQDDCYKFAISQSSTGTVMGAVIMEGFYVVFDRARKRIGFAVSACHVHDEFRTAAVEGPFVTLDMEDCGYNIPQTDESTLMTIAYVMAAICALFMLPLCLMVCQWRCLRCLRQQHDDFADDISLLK
T1 sequence (P02786 89-760 limits assumed): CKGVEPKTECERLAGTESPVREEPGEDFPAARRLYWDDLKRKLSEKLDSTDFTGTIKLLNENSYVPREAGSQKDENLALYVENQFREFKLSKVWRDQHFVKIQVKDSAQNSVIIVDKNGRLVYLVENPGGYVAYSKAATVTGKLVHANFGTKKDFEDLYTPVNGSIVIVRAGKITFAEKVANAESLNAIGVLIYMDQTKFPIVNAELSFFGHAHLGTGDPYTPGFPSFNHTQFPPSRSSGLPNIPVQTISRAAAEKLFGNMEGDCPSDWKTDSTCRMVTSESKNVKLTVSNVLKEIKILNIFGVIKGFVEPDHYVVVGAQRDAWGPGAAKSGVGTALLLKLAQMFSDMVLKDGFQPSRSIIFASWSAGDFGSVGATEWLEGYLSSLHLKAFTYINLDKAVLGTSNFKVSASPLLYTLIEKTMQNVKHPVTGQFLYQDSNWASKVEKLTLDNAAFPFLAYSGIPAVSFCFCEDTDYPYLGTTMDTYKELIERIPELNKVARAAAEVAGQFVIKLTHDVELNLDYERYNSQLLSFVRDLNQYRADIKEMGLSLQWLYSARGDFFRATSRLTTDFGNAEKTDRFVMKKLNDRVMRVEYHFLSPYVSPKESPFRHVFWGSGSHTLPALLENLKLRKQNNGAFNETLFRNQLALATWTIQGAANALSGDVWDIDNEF

binding result [1]: binds
B1: Clone CH3C.3.2-1 (designed binder)
chain: APELLGGPSVFLFPPKPKDTLMISRTPEVTCVVVDVSHEDPEVKFNWYVDGVEVHNAKTKPREEQYNSTYRVVSVLTVLHQDWLNGKEYKCKVSNKALPAPIEKTISKAKGQPREPQVYTLPPSRDELTKNQVSLTCLVKGFYPSDIAVEWESLGHVWVNFKTTPPVLDSDGSFFLYSKLTVPKSTWQQGWVFSCSVMHEALHNHYTQKSLSLSPGK
notes: modified Fc polypeptide; tested as purified Fab-Fc fusion, Fab not identified

cellular IC50 (human Aβ40, CHO-huAPP cells) [2]: 10 nM
B2: Clone35.23.4:2H8/2H8 (antibody, V domains shown)
VH: QVQLVQSGAEVKKPGASVKVSCKASGYTFTNFWIHWVRQAPGQGLEWMGMIDPSSSYTKYNQKFKARATLTVDTSTSTVYMELSSLRSEDTAVYYCARSGASLPYWGQGTLVTVSS
VL: DIQMTQSPSSLSASVGDRVTITCKASQDVGRNVAWYQQKPGKSPKSLIYSASHYYSGVPSRFSGSGSGTDFTLTISSLQPEDFATYFCQQYYSYPYTFGQGTKVEIK

IC50 of Aβ40 formation, primary human neurons [3]: 15 nM | IC50 [4]: 25 nM | Max. % inhibition [4]: 82% | IC50 [5]: 24.8 nM | Max. % inhibition [5]: 82% | Kd [6]: 14.8 nM | % Max Inhibition [7]: 71% | Cellular IC50 [7]: 16 nM | Kd [8]: 6.3 nM | koff [8]: 0.00019 s⁻¹ | kon [8]: 30000 M⁻¹ s⁻¹ | Kd [9]: 14.8 nM | koff [9]: 0.000316 s⁻¹ | kon [9]: 21400 M⁻¹ s⁻¹
B3: 2H8 (antibody, human IgG1, V domains shown)
VH: EVQLQQSGPELVKPGASVKLSCKASGYTFTNFWIHWLKQRPGQGLEWIGMIDPSDSYTKYNQKFKAKATLTVDTSSSTTYMHLSSLTSEDSAVYYCARSGVAFPYWGQRTLVTVSA
VL: DIVMTQSQKFMSKSVGDTVSVTCKASQDVGRNVAWYQQKSGQSPKSLIYSASHRYSGVPDRFTGSGSGTDFTLTISNVQSEDLADYFCQQYNSYPYTFGGGTRLEIK
notes: chimeric, human IgG1/kappa; also called Clone 2H8; 2H8.01
